# Test results reported in patent publication US20070287665A1 (SOCIETE DE CONSEILS DE RECHERCHES ET D APPLICATIONS …, published 2007).
# Bridge positions count the residues as written; N and C are the ends. Square brackets hold non-standard residues; d marks the D form. Ends that are not written are not given here. dDip = N[C@@H](C(=O)O)C(c1ccccc1)c1ccccc1; Phe(4-Cl) = N[C@@H](Cc1ccc(Cl)cc1)C(=O)O; Phe(4-F) = N[C@@H](Cc1ccc(F)cc1)C(=O)O; 3Pal = N[C@@H](Cc1cccnc1)C(=O)O; Tle = CC(C)(C)[C@H](N)C(=O)O; Nal = naphthylalanine
# T1: U-II receptors (rat thoracic aorta tissue) (rat, UniProt P49684 1-386)
# T1 sequence (looked up): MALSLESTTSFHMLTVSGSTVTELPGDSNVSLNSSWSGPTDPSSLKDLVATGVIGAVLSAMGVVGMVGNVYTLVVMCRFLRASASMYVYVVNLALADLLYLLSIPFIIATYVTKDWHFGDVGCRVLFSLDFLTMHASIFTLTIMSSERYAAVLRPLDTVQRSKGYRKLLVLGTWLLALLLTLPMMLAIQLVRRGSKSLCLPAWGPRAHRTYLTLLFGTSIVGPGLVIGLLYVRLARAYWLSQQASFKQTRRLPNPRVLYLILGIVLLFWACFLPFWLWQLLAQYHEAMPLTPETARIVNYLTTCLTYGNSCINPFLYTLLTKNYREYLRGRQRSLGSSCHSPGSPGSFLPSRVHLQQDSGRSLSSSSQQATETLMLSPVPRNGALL
# B1: Cpa-D-Cys-Tyr-D-Trp-Lys-Thr-Cys-Nal-NH2 (peptide)
# peptide: XXYXKTCX
# modifications: Cpa (p-chlorophenylalanine) at 1; D-Cys at 2; D-Trp at 4; Nal (naphthylalanine) at 8; C-terminal amide
# B2: Cpa-c[D-Cys-Phe-Trp-Lys-Thr-Cys]-Val-NH2 (peptide)
# peptide: [Phe(4-Cl)][dC]FWKTCV-NH2
# modifications: disulfide 2-7; N-terminus assumed
# SMILES: CC(C)[C@H](NC(=O)[C@@H]1CSSC[C@@H](NC(=O)[C@@H](N)Cc2ccc(Cl)cc2)C(=O)N[C@@H](Cc2ccccc2)C(=O)N[C@@H](Cc2c[nH]c3ccccc23)C(=O)N[C@@H](CCCCN)C(=O)N[C@@H]([C@@H](C)O)C(=O)N1)C(N)=O
# Experiments:
# [1] = target: U-II receptors (rat thoracic aorta tissue) (rat) (UniProt P49684); experiment: cell-based or functional assay
# [2] = target: U-II receptors (rat thoracic aorta tissue) (rat) (UniProt P49684); experiment: method not described; presumably binding to rat aorta tissue / U-II receptors
# [3] = target: T1, U-II receptors (rat thoracic aorta …); experiment: cell-based or functional assay
# [4] = target: T1, U-II receptors (rat thoracic aorta …); experiment: cell-based or functional assay; remark: listed apart in the source
molecule,measurement,setting,value
Cpa-c[D-Cys-Pal-D-Trp-Lys-Val-Cys]-Cpa-amide (peptide),IC50 against U-II-induced phasic contractions in circular rat thoracic aorta strips,[1],100 nM
same,Kd,[2],240 nM
[Phe(4-Cl)][dC][3Pal]WKTC[Phe(4-Cl)]-NH2 (disulfide 2-7 (inferred)) [Cpa-D-Cys-Pal-Trp-Lys-Thr-Cys-Cpa-NH2],SRIF Antagonist IC50s (nM) against U-II Stimulation of Rat Aorta Phasic Contractions,[3],2 nM
[Phe(4-F)][dC][3Pal][dW]K[Tle]C[Nal]-NH2 (disulfide 2-7 (inferred)) [4Fpa-D-Cys-Pal-D-Trp-Lys-Tle-Cys-Nal-NH2],SRIF Antagonist IC50s (nM) against U-II Stimulation of Rat Aorta Phasic Contractions,[3],100 nM
[Phe(4-F)][dC][3Pal][dW]KVC[Nal]-NH2 (disulfide 2-7 (inferred)) [4Fpa-D-Cys-Pal-D-Trp-Lys-Val-Cys-Nal-NH2],SRIF Antagonist IC50s (nM) against U-II Stimulation of Rat Aorta Phasic Contractions,[3],1090 nM
[Nal][dC]H[dW]KVC[dDip]-NH2 (disulfide 2-7 (inferred)) [Nal-D-Cys-His-D-Trp-Lys-Val-Cys-D-Dip-NH2],SRIF Antagonist IC50s (nM) against U-II Stimulation of Rat Aorta Phasic Contractions,[3],1800 nM
B1,SRIF Antagonist IC50s (nM) against U-II Stimulation of Rat Aorta Phasic Contractions,[3],12 nM
B2,IC50 against U-II-induced phasic contractions in circular rat thoracic aorta strips,[4],2 nM
[Phe(4-Cl)][dC][3Pal][dW]K[Tle]C[Nal]-NH2 (disulfide 2-7 (inferred)) [Cpa-D-Cys-Pal-D-Trp-Lys-Tle-Cys-Nal-NH2],SRIF Antagonist IC50s (nM) against U-II Stimulation of Rat Aorta Phasic Contractions,[3],10 nM
